In publication PMC6764986:

Biological target: ALFA-tagged target immobilized for SPR (TST-NEDD8-ALFA or GFP-ALFA)
Test: SPR; ALFA-tagged ligand (TST-NEDD8-ALFA or GFP-ALFA) coupled by EDC-NHS to HC1000m chip; NbALFA as analyte; 20 °C, 40 µL/min, PBS with 0.002% Tween-20 pH 7.4; dissociation followed for > 7 h

B1: NbALFA (non-tagged) (VHH)
VHH: EVQLQESGGGLVQPGGSLRLSCTASGVTISALNAMAMGWYRQAPGERRVMVAAVSERGNAMYRESVQGRFTVTRDFTNKMVSLQMDNLKPEDTAVYYCHVLEDRVDSFHDYWGQGTQVTVSS
Q: How did the Kd turn out when B1 was run?
A: 0.026 nM
